Test results from patent US20030108549A1 (GENETICS INSTITUTE, published 2003).

Target: T1, human MU-1 Ig fusion protein (human, UniProt Q9HBE5 20-235)
T1 construct: also called MUFc; human Ig fusion protein; not shown: Ig portion
Assay: Biacore; MU-1 Ig fusion immobilized on chip
Experimental: Both human and murine Ig fusion proteins were constructed and immobilized on Biacore chips in an effort to identify the ligand for MU-1. A variety of cell culture conditioned media as well as a panel of known cytokines were evaluated for binding to MU-1. Some cytokines were also tested in combination with other receptor chains in the family to consider the possibility that MU-1 may require a second receptor chain for ligand binding. The following cytokines were tested and found to be negative for MU-1 binding: mIL-2, hIL-2, hIL-i5, mIL-7, TSLP, TSLP+IL7, TSLP+IL7R, TSLP+IL7g, TSLP+IL-2, TSLP+1L2+IL2Rbeta, IL2Rbeta, IL2Rgamma, IL7R, IL2+2Rbeta, IL2+2Rgamma, IL1 5+IL2Rbeta, 1L15+2Rgamma, 1IL7+2Rgamma, IL2+IL7R, IL1 5+IL7R, IL7+IL7R. Known receptors have been immobilized as well and tested for MUFc binding with negative results. IL-IS will bind to IL2Rb but not IL2Rg or MUFc.

T1 sequence (Q9HBE5 20-235): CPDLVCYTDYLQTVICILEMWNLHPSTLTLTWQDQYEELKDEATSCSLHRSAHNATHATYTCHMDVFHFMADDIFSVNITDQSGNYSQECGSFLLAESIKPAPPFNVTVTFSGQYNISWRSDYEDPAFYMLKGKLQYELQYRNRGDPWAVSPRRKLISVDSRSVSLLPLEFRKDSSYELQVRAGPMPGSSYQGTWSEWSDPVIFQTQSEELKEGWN

binding result | Binder
no binding | mIL-2 (ligand, mouse, UniProt P04351 21-169, looked up) APTSSSTSSSTAEAQQQQQQQQQQQQHLEQLLMDLQELLSRMENYRNLKLPRMLTFKFYLPKQATELKDLQCLEDELGPLRHVLDLTQSKSFQLEDAENFISNIRVTVVKLKGSDNTFECQFDDESATVVDFLRRWIAFCQSIISTSPQ
no binding | mIL-7 (ligand, mouse, UniProt P10168 26-154, looked up) ECHIKDKEGKAYESVLMISIDELDKMTGTDSNCPNNEPNFFRKHVCDDTKEAAFLNRAARKLKQFLKMNISEEFNVHLLTVSQGTQTLVNCTSKEEKNVKEQKKNDACFLKRLLREIKTCWNKILKGSI
